{
  "source": "paper PMC10953113",
  "about": "(Biomedicine & pharmacotherapy = Biomedecine & …, 2024)",
  "origin": "cited, not measured here",
  "details": "no reference given",
  "data": [
    {"substance": "Arginine vasopressin [AVP]", "values": [
      {"measurement": "half-life (T1/2)", "value": "~ 10 min"}
    ]}
  ]
}
